Reference: patent publication US12552876

Target: HSA-Fuc-GM1 conjugate (human)
Assay: SPR (Biacore X), HSA-Fuc-GM1 conjugate amine-coupled to CM5 chip, antibody as analyte, bivalent analyte model

Sequence of HSA-Fuc-GM1 conjugate (human) (P02768 25-609): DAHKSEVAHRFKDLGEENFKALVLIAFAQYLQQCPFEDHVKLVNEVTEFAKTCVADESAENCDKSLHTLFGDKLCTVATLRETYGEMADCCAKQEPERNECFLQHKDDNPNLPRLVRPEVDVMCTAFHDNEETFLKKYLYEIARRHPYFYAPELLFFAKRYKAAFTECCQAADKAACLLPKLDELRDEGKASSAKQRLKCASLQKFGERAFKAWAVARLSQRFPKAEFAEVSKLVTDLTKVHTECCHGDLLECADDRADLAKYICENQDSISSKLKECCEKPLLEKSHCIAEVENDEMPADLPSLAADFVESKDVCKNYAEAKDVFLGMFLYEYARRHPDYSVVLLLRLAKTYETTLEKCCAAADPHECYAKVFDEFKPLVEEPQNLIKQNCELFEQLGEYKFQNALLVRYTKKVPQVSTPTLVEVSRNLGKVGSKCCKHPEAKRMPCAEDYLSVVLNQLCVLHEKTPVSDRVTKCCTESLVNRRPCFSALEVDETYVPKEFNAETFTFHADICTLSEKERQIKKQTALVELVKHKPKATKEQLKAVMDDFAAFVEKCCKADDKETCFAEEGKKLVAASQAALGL

Kd: 58 µM
koff: 0.117 s⁻¹
kon: 2010 M⁻¹ s⁻¹
B1: mAb FL134.33 (antibody, V domains shown)
VH: AVQLQESGPDLVKPSQSLSLTCTVTGYSITSGYSWHWIRQFPGNKLEWVGYIHYRGNTNYNPSLKSRVSITRDTYKNQFFLQLNSLTTEDTATYYCAQEPVRNYAMDFWGQGTSVTVSS
VL: DIVMTQSPDTLSVTPGDRVSLSCRASQSISDDLHWYQQKSHESPRLLIKYVSQSISGIPSRFSGSGSRSDFTLTINSVEPEDVGLYYCQNGHGFPPTFGGGTKLEIK
